The values that follow come from patent publication US20240252614A1 (Pfizer, published 2024).

One test deals with T1, PIV1028 (PIV1).
T1 construct: A480L
The experiment in a line: BLI, no stress.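 Also: binding of thermally stressed PIV1 F mutant supernatant to mAb on AHC biosensors for 5 min.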

The target in another test is T2, PIV1033 (PIV1).
T2 construct: T198A
The experiment in a line: BLI, no stress.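 Also: binding of thermally stressed PIV1 F mutant supernatant to mAb on AHC biosensors for 5 min.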 Background: Biolayer interferometry detects binding as a change in optical thickness at a sensor tip.

Another test addresses T3, PIV1031 (PIV1).
T3 construct: A466L, S473L
The test can be described thus: BLI, no stress.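 Also: binding of thermally stressed PIV1 F mutant supernatant to mAb on AHC biosensors for 5 min.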

For a further test, the target named is T4, PIV1024 (PIV1).
T4 construct: A466V
The experiment in a line: BLI, no stress.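 Also: binding of thermally stressed PIV1 F mutant supernatant to mAb on AHC biosensors for 5 min.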

The target in another test is T5, PIV1027 (PIV1).
T5 construct: S473L
The test can be described thus: BLI, no stress.

A further test has as its target T6, PIV1014 (PIV1).
T6 construct: Q92C-G134C
The experiment in a line: BLI, no stress.

In the next test the target is T7, PIV1030 (PIV1).
T7 construct: A466L, S473A
The test can be described thus: BLI, no stress.

The next test concerns the target T8, PIV1023 (PIV1).
T8 construct: A466L
The test can be described thus: BLI, no stress.

The next test concerns the target T9, PIV1026 (PIV1).
T9 construct: S473V
The test can be described thus: BLI, no stress.

Another test concerns the target T10, PIV1036 (PIV1).
T10 construct: G134A
The experiment in a line: BLI, no stress.

The next test concerns the target T11, PIV1039 (PIV1).
T11 construct: A128P
The experiment in a line: BLI, no stress.

Test [1] addresses T12, PIV1055 (PIV1).
T12 construct: A466L, S473L, G134A
The experiment in a line: BLI, no stress.
Method: (§1) The OCTET HTX (Sartorius, Gottingen, Germany) instrument was used to evaluate the expression and conformational integrity for each mutant. All measurements were conducted at 30° C. temperature in 96-well black plates (Corning, Corning, NY) with a final volume of 240 μL per well at a constant agitation rate of 1000 RPM.
(§2) Conformation integrity of PIV1 F protein mutants were evaluated by a thermal stress experiment. Crude cell culture supernatants were normalized based on the results of the titer quantitation and then incubated for 1 hour at room temperature and two higher temperatures. For the initial testing of PIV1 mutants, the two temperatures were 50° C. and 53° C. […] Anti-Human IgG Fc Capture (AHC) biosensors were first equilibrated in PB for before being dipped into more PB to establish the initial baseline. […] The mAb-bound biosensors were then dipped into the thermal stresses cell culture supernatants for 5 minutes.

Another test has as its target T13, PIV1052 (PIV1).
T13 construct: Q92C-G134C, A466V, S473V; also called PV1052
The test can be described thus: BLI, no stress.

Test [2] addresses T14, PIV1 F literature prefusion comparison (PIV1).
T14 construct: F113G, F114S, A466I, S473I (Stewart-Jones et al. 2018)
The experiment in a line: BLI, 56C stress.
Method: as §1, §2

A further test concerns the target T15, PIV1061 (PIV1).
T15 construct: Q92L, G134A, A466L, S473L
The experiment in a line: BLI, 56C stress.

Another test concerns the target T16, PIV1062 (PIV1).
T16 construct: F113G, F114S, A466L, S473L, A480L, Q92A, G134L
The experiment in a line: BLI, 56C stress.

Another test concerns the target T17, PIV1051 (PIV1).
T17 construct: Q92C-G134C, A466V, S473V, A480V
The test can be described thus: BLI, 56C stress.

In another test the target is T18, PIV1068 (PIV1).
T18 construct: A466I, S473I, A480I, Q92L, G134A
The experiment in a line: BLI, 56C stress.

For another test, the target named is T19, PIV1054 (PIV1).
T19 construct: A466L, S473L, A480L, G134A
The experiment in a line: BLI, 56C stress.

For test [3], the target named is T12, PIV1055. The experiment in a line: BLI, 56C stress.
Method: as §1, §2
In the next test the target is T20, PIV1060 (PIV1).
T20 construct: Q92L, G134A, A466L, S473L, A480L
The experiment in a line: BLI, 56C stress.

A further test deals with T21, PIV1058 (PIV1).
T21 construct: A466L, S473L, Q92A, G134A
The test can be described thus: BLI, 56C stress.

In another test the target is T22, PIV1047 (PIV1).
T22 construct: F113G, F114S, Q92C-G134C, A466L, S473L, A480L
The experiment in a line: BLI, 56C stress.

Another test concerns the target T23, PIV1066 (PIV1).
T23 construct: A466I, S473I, A480L, Q92L, G134A
The test can be described thus: BLI, 56C stress.

The next test deals with T24, PIV1064 (PIV1).
T24 construct: F113G, F114S, Q92C-G134C, A466I, S473I, A480L
The experiment in a line: BLI, 56C stress.

The target in the next test is T25, PIV1046 (PIV1).
T25 construct: A466V, S473V
The experiment in a line: BLI, 53C stress.

A further test addresses T26, PIV1044 (PIV1).
T26 construct: Q92L
The test can be described thus: BLI, 53C stress.

Another test deals with T27, PIV1045 (PIV1).
T27 construct: Q92L, G134A
The experiment in a line: BLI, 53C stress.

The target in another test is T28, PIV1042 (PIV1).
T28 construct: Q92A
The test can be described thus: BLI, 53C stress.

Another test concerns the target T29, PIV1043 (PIV1).
T29 construct: Q92A, G134A
The experiment in a line: BLI, 53C stress.

In another test the target is T30, hMPV108 (hMPV B, UniProt Q6WB98 19-102).
T30 construct: T365I
The experiment in a line: BLI, 56C stress.

Another test concerns the target T31, hMPV102 (hMPV B, UniProt Q6WB98 19-102).
T31 construct: L141C-A161C
The experiment in a line: BLI, 56C stress.

In another test the target is T32, hMPV100 (hMPV B, UniProt Q6WB98 19-102).
T32 construct: T411C-Q434C
The experiment in a line: BLI, 56C stress.

In the next test the target is T33, hMPV107 (hMPV B, UniProt Q6WB98 19-102).
T33 construct: S149T
The test can be described thus: BLI, 56C stress.

The next test concerns the target hMPV B F WT Control (hMPV B, UniProt Q6WB98 19-102). The test can be described thus: BLI, 56C stress.
In another test the target is T34, hMPV104 (hMPV B, UniProt Q6WB98 19-102).
T34 construct: A459P
The test can be described thus: BLI, 56C stress.

The target of a further test is T35, hMPV103 (hMPV B, UniProt Q6WB98 19-102).
T35 construct: E146C-T160C
The test can be described thus: BLI, 56C stress.

The target in the next test is T36, hMPV101 (hMPV B, UniProt Q6WB98 19-102).
T36 construct: A140C-S149C
The experiment in a line: BLI, 56C stress.

The next test addresses T37, hMPV105 (hMPV B, UniProt Q6WB98 19-102).
T37 construct: G239A
The test can be described thus: BLI, 56C stress.

The target of another test is T38, hMPV106 (hMPV B, UniProt Q6WB98 19-102).
T38 construct: T49I
The experiment in a line: BLI, 56C stress.

Method for PIV1014: (§3) All measurements were conducted at 30° C. temperature in 96-well black plates (Corning, Corning, NY) with a final volume of 240 μL per well at a constant agitation rate of 1000 RPM.
as §2
Method for PIV1023: as §3, §2
Method for PIV1024: as §3, §2
Method for PIV1026: as §3, §2
Method for PIV1027: as §3, §2
Method for PIV1028: as §3, §2
Method for PIV1030: as §3, §2
Method for PIV1031: as §3, §2
Method for PIV1033: as §3, §2
Method for PIV1036: as §3, §2
Method for PIV1039: as §3, §2
Method for PIV1042: as §3, §2
Method for PIV1043: as §3, §2
Method for PIV1044: as §3, §2
Method for PIV1045: as §3, §2
Method for PIV1046: as §3, §2
Method for PIV1047: as §1, §2
Method for PIV1051: as §1, §2
Method for PIV1052: as §1, §2
Method for PIV1054: as §1, §2
Method for PIV1058: as §1, §2
Method for PIV1060: as §1, §2
Method for PIV1061: as §1, §2
Method for PIV1062: as §1, §2
Method for PIV1064: as §1, §2
Method for PIV1066: as §1, §2
Method for PIV1068: as §1, §2
Method for hMPV B F WT Control: as §3
(§4) Conformation integrity of hMPV B F protein mutants were evaluated by a thermal stress experiment. Crude cell culture supernatants were normalized based on the results of the titer quantitation and then incubated for 1 hour at room temperature and two higher temperatures. For the testing of hMPV B single mutants, the two temperatures were 53° C. and 56° C. After the incubation, the protein mutants were probed with prefusion specific monoclonal antibody hMPV-2 by OCTET HTX. Anti-Human IgG Fc Capture (AHC) biosensors were first equilibrated in PB before being dipped into more PB for to establish the initial baseline. Biosensors were incubated with hMPV-2 before being equilibrated in PB to establish the experimental baseline. The mAb-bound biosensors were then dipped into the thermal stresses cell culture supernatants for 5 minutes.
Method for hMPV100: as §3, §4
Method for hMPV101: as §3, §4
Method for hMPV102: as §3, §4
Method for hMPV103: as §3, §4
Method for hMPV104: as §3, §4
Method for hMPV105: as §3, §4
Method for hMPV106: as §3, §4
Method for hMPV107: as §3, §4
Method for hMPV108: as §3, §4

B1: PIV1-8 mAb (antibody, V domains shown)
VH: QVQLVQSGAEVKKPGSSVKVSCEASGGTFSNYVISWVRQAPGQGLEWMGGIIPVFATAKYAQKFQGRVTIIADQSTNTAYLELSSLRSDDTAVYFCASVDSGGTWWDAFAIWGQGTMVTVSS
VL: QAVVTQPRSVSGSPGQAVTISCTGTSSDVGGYNYVSWYQHHPGKAPKLIIYDVTKRPSGVPDRFSGSKSGNTASLTISGLQTEYEADYYCCSYAGSYTLVFGGGTKLTVLG
notes: human IgG1; also called hPIV1-8 mAb; hPIV1-8
On to B1, for which the “Response Shift” value with PIV1028 is 0.579 nm; in the test with PIV1033, -0.056 nm; with PIV1031, 0.766 nm; with PIV1024, 0.745 nm; with PIV1027, 0.748 nm; with PIV1014, 0.857 nm. Besides, the “Response Shift” value was 0.753 nm with PIV1030; 0.831 nm with PIV1023; 0.606 nm with PIV1026; 0.753 nm with PIV1036; -0.068 nm with PIV1039; 0.757 nm in the test with PIV1055 [1]. For the same molecule, the “Response Shift” value in the test with PIV1052 turned out to be 0.67 nm; in test [2] it was 0.119 nm; with PIV1061, 0.526 nm; with PIV1062 it was 0.623 nm; in the test with PIV1051, 0.322 nm; with PIV1068, 0.559 nm. For the same molecule, the “Response Shift” value with PIV1054 was 0.723 nm; with PIV1055 [3], 0.682 nm; in the test with PIV1060, 0.597 nm; with PIV1058, 0.543 nm; with PIV1047 it was 0.754 nm; with PIV1066, 0.582 nm. Besides, the “Response Shift” value with PIV1064 is 0.702 nm; in the test with PIV1046 it was -0.059 nm; with PIV1044, -0.007 nm; with PIV1045 it was -0.054 nm; in the test with PIV1042, -0.052 nm; with PIV1043 it was -0.012 nm.

B2: hMPV-2 mAb (antibody, V domains shown)
VH: QVQLQQSGAEVKKPGASVKVSCKASGYTFTSYGISWVRQAPGQGLEWMGWISGYNGNTNYAQTFQGTFTMTTDTSTSTAYMELRRLRSGDTAVYYCARDRYYASGSYNGMDVWGQGTTVTVSS
VL: QSALTQPPSASGAPGQRVTVSCSGSSSNVGSSSVYWYQQLPGTAPKLLIYRNNQRPSGVPDRFSGSKSGTSASLAISGLRSEDEADYYCAAWDDSLSGWVFGGGTKLTVLG
notes: human IgG1
Turning to B2, the “Response Shift” value in the test with hMPV108 is 0.04 nm; in the test with hMPV102, 0.007 nm; in the test with hMPV100, 0.779 nm; with hMPV107 it was 0.519 nm; with hMPV B F WT Control it was 0.005 nm; with hMPV104 it was -0.11 nm. In addition, the “Response Shift” value with hMPV103 was 0.041 nm; in the test with hMPV101 it was 0.649 nm; in the test with hMPV105, 0.064 nm; in the test with hMPV106, 0.397 nm.
